# Assay results published in publication PMC6412040.
# Experiments:
# [1] = biological target: USP37^mUIM1,2,3 (Danio rerio USP37 312–927 with mutations in all three UIMs) (Danio rerio) (UniProt E7F6T8)
# [2] = biological target: USP37^wt (isolated catalytic domain of USP37 from Danio rerio, residues 312–927) (Danio rerio) (UniProt E7F6T8)
# Sequence of USP37^wt (isolated catalytic domain of USP37 from Danio rerio, residues 312–927) (Danio rerio) (E7F6T8 312-927): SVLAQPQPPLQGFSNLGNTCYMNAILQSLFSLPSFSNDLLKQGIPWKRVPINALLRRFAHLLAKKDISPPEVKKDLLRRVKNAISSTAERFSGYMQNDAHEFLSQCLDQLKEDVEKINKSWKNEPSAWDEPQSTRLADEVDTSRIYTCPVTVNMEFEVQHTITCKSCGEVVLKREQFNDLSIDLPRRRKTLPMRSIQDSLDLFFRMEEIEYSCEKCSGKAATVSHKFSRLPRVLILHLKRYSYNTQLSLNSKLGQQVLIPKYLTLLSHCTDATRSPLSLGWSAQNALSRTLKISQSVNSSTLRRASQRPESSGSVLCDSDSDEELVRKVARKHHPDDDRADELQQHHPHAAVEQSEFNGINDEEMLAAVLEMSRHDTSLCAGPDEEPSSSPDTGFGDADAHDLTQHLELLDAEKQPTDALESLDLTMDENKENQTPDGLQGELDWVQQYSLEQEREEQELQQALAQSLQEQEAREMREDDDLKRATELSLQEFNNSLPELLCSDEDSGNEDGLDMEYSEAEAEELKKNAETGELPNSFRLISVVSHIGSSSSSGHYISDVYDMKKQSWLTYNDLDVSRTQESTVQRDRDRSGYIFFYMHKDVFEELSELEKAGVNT
# Sequence of USP37^mUIM1,2,3 (Danio rerio USP37 312–927 with mutations in all three UIMs) (Danio rerio) (E7F6T8 312-927 V680G/S684A/A774G/S778A/A796G/S800A): as the sequence (E7F6T8 312-927) above, with V369G, S373A, A463G, S467A, A485G, S489A counted along it
substance,measurement,setting,value
K63-linked di-Ub (from UniProt P0CG48 1-76; P0CG48 1-76) (complex),"KM of cleavage of K63-linked di-Ub (1 part IQF di-Ub, 4 parts unlabeled chain), Michaelis-Menten analysis, 12.5 nM enzyme",[1],3.6 µM
same,"kcat of cleavage of K63-linked di-Ub (1 part IQF di-Ub, 4 parts unlabeled chain), Michaelis-Menten analysis",[1],0.008 s⁻¹
same,"KM of cleavage of K63-linked di-Ub (1 part IQF di-Ub, 4 parts unlabeled chain), Michaelis-Menten analysis, 12.5 nM enzyme",[2],1.7 µM
same,"kcat of cleavage of K63-linked di-Ub (1 part IQF di-Ub, 4 parts unlabeled chain), Michaelis-Menten analysis",[2],0.027 s⁻¹
K11-linked di-Ub (from UniProt P0CG48 1-76; P0CG48 1-76) (complex),"KM of cleavage of K11-linked di-Ub (1 part IQF di-Ub, 4 parts unlabeled chain), Michaelis-Menten analysis, 25 nM enzyme",[1],19 µM
same,"kcat of cleavage of K11-linked di-Ub (1 part IQF di-Ub, 4 parts unlabeled chain), Michaelis-Menten analysis",[1],0.072 s⁻¹
same,"KM of cleavage of K11-linked di-Ub (1 part IQF di-Ub, 4 parts unlabeled chain), Michaelis-Menten analysis, 25 nM enzyme",[2],11 µM
same,"kcat of cleavage of K11-linked di-Ub (1 part IQF di-Ub, 4 parts unlabeled chain), Michaelis-Menten analysis",[2],0.19 s⁻¹
K48-linked di-Ub (from UniProt P0CG48 1-76; P0CG48 1-76) (complex),"KM of cleavage of K48-linked di-Ub (1 part IQF di-Ub, 4 parts unlabeled chain), Michaelis-Menten analysis, 1.25 nM enzyme",[1],0.72 µM
same,"kcat of cleavage of K48-linked di-Ub (1 part IQF di-Ub, 4 parts unlabeled chain), Michaelis-Menten analysis",[1],0.015 s⁻¹
same,"KM of cleavage of K48-linked di-Ub (1 part IQF di-Ub, 4 parts unlabeled chain), Michaelis-Menten analysis, 1.25 nM enzyme",[2],0.4 µM
same,"kcat of cleavage of K48-linked di-Ub (1 part IQF di-Ub, 4 parts unlabeled chain), Michaelis-Menten analysis",[2],0.23 s⁻¹
